This data set addresses Factor X, P00742.

Chain of Factor X, P00742 (P00742 whole entry, looked up): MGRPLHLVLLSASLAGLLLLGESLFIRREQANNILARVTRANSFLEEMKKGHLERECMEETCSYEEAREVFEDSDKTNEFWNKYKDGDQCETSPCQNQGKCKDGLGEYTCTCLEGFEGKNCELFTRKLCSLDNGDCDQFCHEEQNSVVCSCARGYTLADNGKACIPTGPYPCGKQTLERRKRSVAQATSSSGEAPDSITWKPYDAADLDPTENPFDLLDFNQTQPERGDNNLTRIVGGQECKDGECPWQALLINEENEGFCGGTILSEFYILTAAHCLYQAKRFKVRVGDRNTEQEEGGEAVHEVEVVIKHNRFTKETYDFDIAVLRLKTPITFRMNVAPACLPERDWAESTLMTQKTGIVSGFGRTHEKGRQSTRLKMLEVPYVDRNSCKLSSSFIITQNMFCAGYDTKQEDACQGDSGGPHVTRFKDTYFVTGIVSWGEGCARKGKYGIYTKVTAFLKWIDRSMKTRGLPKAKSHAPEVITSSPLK

B1: Desialylated wild-type Factor VII (dWT VIIa) (protein)
chain 1: ANAFLEELRPGSLERECKEEQCSFEEAREIFKDAERTKLFWISYSDGDQCASSPCQNGGSCKDQLQSYICFCLPAFEGRNCETHKDDQLICVNENGGCEQYCSDHTGTKRSCRCHEGYSLLADGVSCTPTVEYPCGKIPILEKRNASKPQGR
chain 2: IVGGKVCPKGECPWQVLLLVNGAQLCGGTLINTIWVVSAAHCFDKIKNWRNLIAVLGEHDLSEHDGDEQSRRVAQVIIPSTYVPGTTNHDIALLRLHQPVVLTDHVVPLCLPERTFSERTLAFVRFSLVSGWGQLLDRGATALELMVLNVPRLMTQDCLQQSRKVGDSPNITEYMFCAGYSDGSKDSCKGDSGGPHATHYRGTWYLTGIVSWGQGCATVGHFGVYTRVSQYIEWLQKLMRSEPRPGVLLRAPFP
As for B1, the “activation of Factor X (Michaelis Menten kinetics; Factor X titrated in the presence of sTF-Factor VII complexes, 0.5 nM Factor VII, 125 nM sTF), relative to wild-type Factor VII (F7)” value is listed as “approximately 2-fold”.

Values taken from patent publication US20210002624.
